This note sets out measurements from patent US20230265151A1, “GIP/GLP1 CO-AGONIST COMPOUNDS” (priority 2020, published 2023).

Sequences and labels used below:
B1: Example 390 (peptide)
peptide: Y[Aib]EGT[αMePhe(2-F)]TSDV[Aib]I[αMeL]LD[Orn]QAQ[Aib]EFIK([AEEA-AEEA-γGlu-C14 diacid])[αMeY]LIK([AEEA-AEEA-γGlu-C14 diacid])GGPSSGAPPPS-NH2
modifications: N-terminus assumed
SMILES: CC[C@H](C)[C@H](NC(=O)[C@H](CC(C)C)NC(=O)[C@](C)(Cc1ccc(O)cc1)NC(=O)[C@H](CCCCNC(=O)COCCOCCNC(=O)COCCOCCNC(=O)CC[C@H](NC(=O)CCCCCCCCCCCCC(=O)O)C(=O)O)NC(=O)[C@@H](NC(=O)[C@H](Cc1ccccc1)NC(=O)[C@H](CCC(=O)O)NC(=O)C(C)(C)NC(=O)[C@H](CCC(N)=O)NC(=O)[C@H](C)NC(=O)[C@H](CCC(N)=O)NC(=O)[C@H](CCCN)NC(=O)[C@H](CC(=O)O)NC(=O)[C@H](CC(C)C)NC(=O)[C@](C)(CC(C)C)NC(=O)[C@@H](NC(=O)C(C)(C)NC(=O)[C@@H](NC(=O)[C@H](CC(=O)O)NC(=O)[C@H](CO)NC(=O)[C@@H](NC(=O)[C@](C)(Cc1ccccc1F)NC(=O)[C@@H](NC(=O)CNC(=O)[C@H](CCC(=O)O)NC(=O)C(C)(C)NC(=O)[C@@H](N)Cc1ccc(O)cc1)[C@@H](C)O)[C@@H](C)O)C(C)C)[C@@H](C)CC)[C@@H](C)CC)C(=O)N[C@@H](CCCCNC(=O)COCCOCCNC(=O)COCCOCCNC(=O)CC[C@H](NC(=O)CCCCCCCCCCCCC(=O)O)C(=O)O)C(=O)NCC(=O)NCC(=O)N1CCC[C@H]1C(=O)N[C@@H](CO)C(=O)N[C@@H](CO)C(=O)NCC(=O)N[C@@H](C)C(=O)N1CCC[C@H]1C(=O)N1CCC[C@H]1C(=O)N1CCC[C@H]1C(=O)N[C@@H](CO)C(N)=O
B2: Example 365 (peptide)
peptide: YXEGTXTSDYXIXLDXIAQXEFIKXLIKGGPSSGAPPPS
modifications: Y-Aib-EGT-αMeF(2F)-TSDY-Aib-I-αMeL-LD-Orn-IAQ-Aib-EFIK((2-[2-(2-Amino-ethoxy)-ethoxy]-acetyl)-(γ-Glu)-(2-[2-(2-Amino-ethoxy)-ethoxy]-acetyl)-CO-(CH2)12-CO2H)-αMeY-LIK((2-[2-(2-Amino-ethoxy)-ethoxy]-acetyl)-(γ-Glu)-(2-[2-(2-Amino-ethoxy)-ethoxy]-acetyl)-CO-(CH2)12-CO2H)GGPSSGAPPPS-NH2
B3: Example 441 (peptide)
peptide: B2 peptide with Y10X, I12G, I17Q, E21X
modifications: Y-Aib-EGT-αMeF(2F)-TSD-4Pal-Aib-G-αMeL-LD-Orn-QAQ-Aib-Orn-FIK((2-[2-(2-Amino-ethoxy)-ethoxy]-acetyl)2-(γ-Glu)-CO-(CH2)12-CO2H)-αMeY-LIK((2-[2-(2-Amino-ethoxy)-ethoxy]-acetyl)2-(γ-Glu)-CO-(CH2)12-CO2H)GGPSSGAPPPS-NH2
B4: Example 440 (peptide)
peptide: B2 peptide with Y10X, I17Q, E21X
modifications: Y-Aib-EGT-αMeF(2F)-TSD-4Pal-Aib-I-αMeL-LD-Orn-QAQ-Aib-Orn-FIK((2-[2-(2-Amino-ethoxy)-ethoxy]-acetyl)2-(γ-Glu)-(10-(4-carboxyphenoxy)decanoyl))-αMeY-LIK((2-[2-(2-Amino-ethoxy)-ethoxy]-acetyl)2-(γ-Glu)-(10-(4-carboxyphenoxy)decanoyl))GGPSSGAPPPS-NH2
B5: Example 449 (peptide)
peptide: B2 peptide with Y10X, I17Q, E21X
modifications: not fully specified; Y-Aib-EGT-αMeF(2F)-TSD-4Pal-Aib-I-αMeL-LD-Orn-QAQ-Aib-Orn-FIK((2-[2-(2-Amino-ethoxy)-ethoxy]-acetyl)-Ahx-(γ-Glu)-CO-(CH2)12-CO2)-αMeY-LIK((2-[2-(2-Amino-ethoxy)-ethoxy]-acetyl)-Ahx-(γ-Glu)-CO-(CH2)12-CO2)GGPSSGAPPPS-NH2
B6: Example 443 (peptide)
peptide: B2 peptide with Y10X, I17Q, E21X
modifications: Y-Aib-EGT-αMeF(2F)-TSD-4Pal-Aib-I-αMeL-LD-Orn-QAQ-Aib-Orn-FIK((2-[2-(2-Amino-ethoxy)-ethoxy]-acetyl)2-(γ-Glu)-CO-(CH2)14-CO2)-αMeY-LIK((2-[2-(2-Amino-ethoxy)-ethoxy]-acetyl)2-(γ-Glu)-CO-(CH2)14-CO2)GGPSSGAPPPS-NH2
B7: Example 453 (peptide)
peptide: B2 peptide with Y10X, I17Q, E21X
modifications: Y-Aib-EGT-αMeF(2F)-TSD-4Pal-Aib-I-αMeL-LD-Orn-QAQ-Aib-Orn-FIK((2-[2-(2-Amino-ethoxy)-ethoxy]-acetyl)-Ahx-(γ-Glu)-(10-(4-carboxyphenoxy)decanoyl))-αMeY-LIK((2-[2-(2-Amino-ethoxy)-ethoxy]-acetyl)-Ahx-(γ-Glu)-(10-(4-carboxyphenoxy)decanoyl))GGPSSGAPPPS-NH2
B8: Example 444 (peptide)
peptide: B2 peptide with Y10X, I17Q, E21X
modifications: Y-Aib-EGT-αMeF(2F)-TSD-4Pal-Aib-I-αMeL-LD-Orn-QAQ-Aib-4Pal-FIK((2-[2-(2-Amino-ethoxy)-ethoxy]-acetyl)2-(γ-Glu)-CO-(CH2)12-CO2H)-αMeY-LIK((2-[2-(2-Amino-ethoxy)-ethoxy]-acetyl)2-(γ-Glu)-CO-(CH2)12-CO2H)GGPSSGAPPPS-NH2

Changes are numbered by the printed parent chain. *1 amine or outer side, *2 acyl side, *3 side chain or, on linkers, in order; H or OH if unused. Where no end group is shown, it is not given here. Side-chain parts run from the residue outwards. [ ]: non-standard residue; d: D form. The star is where a group is joined. Decanoyl(10-(4-HOOC-PhO)) = O=C(O)c1ccc(OCCCCCCCCCC(=O)*)cc1; αMePhe(2-F) = C[C@](N)(Cc1ccccc1F)C(=O)O; γGlu = O=C(O)[C@H](CCC(=O)[*:2])N[*:1]; C14 diacid = O=C(O)CCCCCCCCCCCCC(=O)*; αMeY = C[C@](N)(Cc1ccc(O)cc1)C(=O)O; αMeL = CC(C)C[C@](C)(N)C(=O)O; Orn = NCCC[C@H](N)C(=O)O; AEEA = NCCOCCOCC(=O)O; Aib = CC(C)(N)C(=O)O

The target of one test is human GLP-1 receptor (human, UniProt P43220 24-463). The test is described as follows: cell-based or functional assay.
As for Y[Aib]EGT[αMePhe(2-F)]TSDV[Aib]I[αMeL]LD[Orn]QAQ[Aib]EFIK([AEEA-AEEA-γGlu-Decanoyl(10-(4-HOOC-PhO))])[αMeY]LIK([AEEA-AEEA-γGlu-Decanoyl(10-(4-HOOC-PhO))])GGPSSGAPPPS-NH2 [Example 446], the “cAMP EC50 (1.0% HSA)” value amounted to 33.5 nM and the “cAMP Emax (1.0% HSA)” value was found to be 105%.
With B1, the “cAMP EC50 (1.0% HSA)” value was found to be 24.3 nM and the “cAMP Emax (1.0% HSA)” value was found to be 94.6%.
In the same order, the values of Y[Aib]EGT[αMePhe(2-F)]TSDV[Aib]I[αMeL]LD[Orn]QAQ[Aib][Orn]FIK([AEEA-AEEA-γGlu-Decanoyl(10-(4-HOOC-PhO))])[αMeY]LIK([AEEA-AEEA-γGlu-Decanoyl(10-(4-HOOC-PhO))])GGPSSGAPPPS-NH2 [Example 447] are 7.85 nM and 98.4%.
In the case of B2, the “cAMP EC50 (1.0% HSA)” value came out at 22.3 nM and the “cAMP Emax (1.0% HSA)” value came out at 91%.
In the same order, the values of B3 are 5.75 nM and 111%.
B4: the “cAMP EC50 (1.0% HSA)” value turned out to be 2.74 nM.
Still for that read-out and setting: for B5 the value was 7.27 nM; for B6, 133 nM; for B7, 5.47 nM.
On the same count and under the same terms, for B8 the value was 7.51 nM.

The target of another test is T1, human GIP receptor (human, UniProt P48546 22-466).
T1 sequence (looked up): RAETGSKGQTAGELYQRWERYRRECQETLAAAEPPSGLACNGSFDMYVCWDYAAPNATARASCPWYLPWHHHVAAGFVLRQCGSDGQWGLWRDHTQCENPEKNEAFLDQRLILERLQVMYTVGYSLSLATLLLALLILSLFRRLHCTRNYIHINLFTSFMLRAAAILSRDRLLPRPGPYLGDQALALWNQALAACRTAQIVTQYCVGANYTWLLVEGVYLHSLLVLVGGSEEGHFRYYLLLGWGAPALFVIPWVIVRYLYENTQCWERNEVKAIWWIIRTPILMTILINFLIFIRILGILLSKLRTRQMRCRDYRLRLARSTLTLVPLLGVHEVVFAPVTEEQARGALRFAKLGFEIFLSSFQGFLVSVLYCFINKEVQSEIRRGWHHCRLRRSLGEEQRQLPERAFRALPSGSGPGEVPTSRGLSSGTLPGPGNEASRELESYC
Put plainly: cell-based or functional assay.
As for Y[Aib]EGT[αMePhe(2-F)]TSDV[Aib]I[αMeL]LD[Orn]QAQ[Aib]EFIK([AEEA-AEEA-γGlu-Decanoyl(10-(4-HOOC-PhO))])[αMeY]LIK([AEEA-AEEA-γGlu-Decanoyl(10-(4-HOOC-PhO))])GGPSSGAPPPS-NH2 [Example 446], the “cAMP EC50 (1.0% HSA)” value is 5.14 nM and the “cAMP Emax (1.0% HSA)” value was determined as 97%.
For B1, in that order: 3.85 nM and 89.3%.
For the molecule Y[Aib]EGT[αMePhe(2-F)]TSDV[Aib]I[αMeL]LD[Orn]QAQ[Aib][Orn]FIK([AEEA-AEEA-γGlu-Decanoyl(10-(4-HOOC-PhO))])[αMeY]LIK([AEEA-AEEA-γGlu-Decanoyl(10-(4-HOOC-PhO))])GGPSSGAPPPS-NH2 [Example 447], the “cAMP EC50 (1.0% HSA)” value stood at 1.46 nM.
Still for that read-out and setting: in the case of B2 it was 1.93 nM.
With B3, the “cAMP EC50 (1.0% HSA)” value was 1.38 nM and the “cAMP Emax (1.0% HSA)” value was 83.8%.
As to B4, the “cAMP EC50 (1.0% HSA)” value was 0.209 nM.
Still for that read-out and setting: for B5 the value was 0.595 nM.
Regarding B6, the “cAMP EC50 (1.0% HSA)” value was found to be 12.2 nM.
Take B7: the “cAMP EC50 (1.0% HSA)” value amounted to 0.451 nM.
Same read-out and setting: in the case of B8 it was 0.57 nM.

For another test, the target named is human glucagon receptor (human, UniProt P47871 26-477). Put plainly: cell-based or functional assay.
Sequence of human glucagon receptor (P47871 26-477): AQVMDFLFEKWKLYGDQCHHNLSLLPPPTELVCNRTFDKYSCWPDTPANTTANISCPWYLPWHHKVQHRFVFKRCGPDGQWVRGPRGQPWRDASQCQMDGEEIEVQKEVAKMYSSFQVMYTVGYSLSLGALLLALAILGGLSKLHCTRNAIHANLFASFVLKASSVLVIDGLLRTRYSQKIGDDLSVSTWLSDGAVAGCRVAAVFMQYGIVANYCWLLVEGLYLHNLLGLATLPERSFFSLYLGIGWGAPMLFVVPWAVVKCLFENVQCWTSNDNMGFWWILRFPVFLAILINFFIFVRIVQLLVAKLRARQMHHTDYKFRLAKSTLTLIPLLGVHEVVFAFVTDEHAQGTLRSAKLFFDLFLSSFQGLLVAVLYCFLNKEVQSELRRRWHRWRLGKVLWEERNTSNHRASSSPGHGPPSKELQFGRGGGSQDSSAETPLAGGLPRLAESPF
On to Y[Aib]EGT[αMePhe(2-F)]TSDV[Aib]I[αMeL]LD[Orn]QAQ[Aib]EFIK([AEEA-AEEA-γGlu-Decanoyl(10-(4-HOOC-PhO))])[αMeY]LIK([AEEA-AEEA-γGlu-Decanoyl(10-(4-HOOC-PhO))])GGPSSGAPPPS-NH2 [Example 446], for which the “cAMP EC50 (1.0% HSA)” value was above 9950 nM.
On the same count and under the same terms, for B1 the value was above 9950 nM; for Y[Aib]EGT[αMePhe(2-F)]TSDV[Aib]I[αMeL]LD[Orn]QAQ[Aib][Orn]FIK([AEEA-AEEA-γGlu-Decanoyl(10-(4-HOOC-PhO))])[αMeY]LIK([AEEA-AEEA-γGlu-Decanoyl(10-(4-HOOC-PhO))])GGPSSGAPPPS-NH2 [Example 447], above 9950 nM.
On the same count and under the same terms, in the case of B2 it was above 9950 nM; in that of B3, above 9950 nM.
Turning to B4, the “cAMP EC50 (1.0% HSA)” value is above 10100 nM.
As for B5, the “cAMP EC50 (1.0% HSA)” value is above 9950 nM.
Still for that read-out and setting: in the case of B6 it was above 9950 nM.
Still for that read-out and setting: for B7 the value was above 9950 nM.
Same read-out and setting: in the case of B8 it was above 9950 nM.
